Where two headings read alike, the source gives them in different places.
Columns and labels:
Experiment in all cases: Scatchard, 125I-ligand, solubilised TSHR on tubes
[1] = target: T1, human thyrotropin receptor (TSHR), wild type, full length (human, UniProt P16473 21-764)
T1 construct: whole, on cells; Full length cDNA in pcDNA5.1/FRT, stably expressed in Flp-In-CHO cells; Cyclic AMP assays: on the cells; also called TSH receptor; Wild type TSHR
Protocol: (§1) Firstly, dilution profiles of each TSHR preparation were set up. In these experiments, plastic tubes (Maxisorp Star; NUNC) were coated overnight at 4° C. with 200 µL of a mouse monoclonal antibody to the TSHR C-terminus at 10 µg/mL in coating buffer (0.1 mmol/L Na_2CO$_3$ pH 9.2). After washing and post-coating (10 mg/mL of BSA in water) the tubes were washed with assay buffer (10 mmol/L Tris-HCl pH 7.8, 50 mmol/L NaCl and 1 mg/mL BSA) containing 0.1% Triton X-100. In the next step, 200 µL of solubilized wild type or mutated TSHR preparations were added to the tubes and incubated overnight at 4 C. […] After aspiration of the solutions, the tubes were washed and counted in a gamma counter.

TSHR Glu107 to Ala = target: T2, TSHR Glu107 to Ala (human, UniProt P16473 21-764)
T2 construct: whole, on cells; as m1
Protocol: as §1

TSHR Phe130 to Ala = target: T3, TSHR Phe130 to Ala (human, UniProt P16473 21-764)
T3 construct: whole, on cells; as m1
Protocol: as §1

TSHR Phe134 to Ala = target: T4, TSHR Phe134 to Ala (human, UniProt P16473 21-764)
T4 construct: whole, on cells; as m1
Protocol: as §1

TSHR Glu157 to Ala = target: T5, TSHR Glu157 to Ala (human, UniProt P16473 21-764)
T5 construct: whole, on cells; as m1; also called Glu157 mutated to Ala
Protocol: as §1

TSHR Asp160 to Ala = target: T6, TSHR Asp160 to Ala (human, UniProt P16473 21-764)
T6 construct: whole, on cells; as m1
Protocol: as §1

TSHR Glu178 to Ala = target: T7, TSHR Glu178 to Ala (human, UniProt P16473 21-764)
T7 construct: whole, on cells; as m1; also called Glu178 mutated to Ala
Protocol: as §1

TSHR Tyr185 to Ala = target: T8, TSHR Tyr185 to Ala (human, UniProt P16473 21-764)
T8 construct: whole, on cells; as m1
Protocol: as §1

TSHR Asp203 to Ala = target: T9, TSHR Asp203 to Ala (human, UniProt P16473 21-764)
T9 construct: whole, on cells; as m1; also called Asp203 mutated to Ala
Protocol: as §1

TSHR Lys209 to Ala = target: T10, TSHR Lys209 to Ala (human, UniProt P16473 21-764)
T10 construct: whole, on cells; as m1
Protocol: as §1

TSHR Gln235 to Ala = target: T11, TSHR Gln235 to Ala (human, UniProt P16473 21-764)
T11 construct: whole, on cells; as m1
Protocol: as §1

TSHR Lys250 to Ala = target: T12, TSHR Lys250 to Ala (human, UniProt P16473 21-764)
T12 construct: whole, on cells; as m1
Protocol: as §1

TSHR Glu251 to Ala = target: T13, TSHR Glu251 to Ala (human, UniProt P16473 21-764)
T13 construct: whole, on cells; as m1
Protocol: as §1

TSHR Arg255 to Ala = target: T14, TSHR Arg255 to Ala (human, UniProt P16473 21-764)
T14 construct: whole, on cells; as m1; also called Arg255 mutated to Ala
Protocol: as §1

TSHR Arg255 to Asp = target: T15, TSHR Arg255 to Asp (human, UniProt P16473 21-764)
T15 construct: whole, on cells; as m1; also called TSHR with Arg255 mutated to Asp; Arg255 Asp mutation
Protocol: as §1

TSHR Thr257 to Ala = target: T16, TSHR Thr257 to Ala (human, UniProt P16473 21-764)
T16 construct: whole, on cells; as m1
Protocol: as §1

TSHR Trp258 to Ala = target: T17, TSHR Trp258 to Ala (human, UniProt P16473 21-764)
T17 construct: whole, on cells; as m1; also called Trp258 mutated to Ala
Protocol: as §1

TSHR Arg274 to Ala = target: T18, TSHR Arg274 to Ala (human, UniProt P16473 21-764)
T18 construct: whole, on cells; as m1
Protocol: as §1

TSHR Asp276 to Ala = target: T19, TSHR Asp276 to Ala (human, UniProt P16473 21-764)
T19 construct: whole, on cells; as m1; also called Asp276 mutated to Ala
Protocol: as §1

TSHR Tyr279 to Ala = target: T20, TSHR Tyr279 to Ala (human, UniProt P16473 21-764)
T20 construct: whole, on cells; as m1
Protocol: as §1

TSHR Ser281 to Ala = target: T21, TSHR Ser281 to Ala (human, UniProt P16473 21-764)
T21 construct: whole, on cells; as m1; also called Ser281 mutated to Ala
Protocol: as §1

[2] = target: T22, TSHR Arg255 to Ala and Trp258 to Ala (human, UniProt P16473 21-764)
T22 construct: whole, on cells; as m1
Protocol: as §1

TSHR Asp43 to Ala = target: T23, TSHR Asp43 to Ala (human, UniProt P16473 21-764)
T23 construct: whole, on cells; as m1; also called Asp43 mutated to Ala
Protocol: as §1

TSHR Glu61 to Ala = target: T24, TSHR Glu61 to Ala (human, UniProt P16473 21-764)
T24 construct: whole, on cells; as m1; also called Glu61 mutated to Ala
Protocol: as §1

[3] = target: T1, human thyrotropin receptor (TSHR), wild …; remark: listed apart in the source
[4] = target: T25, TSHR Glu157 to Ala and Asp203 to Ala (human, UniProt P16473 21-764)
T25 construct: whole, on cells; as m1

[5] = target: T26, TSHR Glu178 to Ala and Asp203 to Ala (human, UniProt P16473 21-764)
T26 construct: whole, on cells; as m1

[6] = target: T27, TSHR Tyr185 to Ala and Lys183 to Ala (human, UniProt P16473 21-764)
T27 construct: whole, on cells; as m1

[7] = target: T28, TSHR Trp258 to Ala and Tyr185 to Ala (human, UniProt P16473 21-764)
T28 construct: whole, on cells; as m1

[8] = target: T29, TSHR Arg255 to Ala and Tyr185 to Ala (human, UniProt P16473 21-764)
T29 construct: whole, on cells; as m1

[9] = target: T30, TSHR Arg255 to Ala, Lys183 to Ala and Tyr185 to Ala (human, UniProt P16473 21-764)
T30 construct: whole, on cells; as m1

[10] = target: T31, TSHR Arg255 to Ala, Trp258 to Ala and Tyr185 to Ala (human, UniProt P16473 21-764)
T31 construct: whole, on cells; as m1

B1: 9D33 MAb (antibody, V domains shown)
VH: DVQIQQPGTELVKPGASVRLSCKASGYTFTTYWMHWVKQRPGQGLEWIGEIDPSDSYTNYNQKFKGKATLTVDKSSSTAYMHLSSLTSEDSAVYYCSRNYGSGYYFDYWGQGTTLTVSS
VL: GVEMTQSPAIMSASPGEKVTMTCSASSSVSYMHWYQQKSGTSPKRWIYDTSKLASGVPARFSGSGSGTSYSLTISSMETEDAATYYCQQWSSNPWTFGGGTKLEIK
- Ka [1]: 1.8e+10 M⁻¹
- Ka (TSHR Glu107 to Ala): 6e+09 M⁻¹
- Ka (TSHR Phe130 to Ala): 9e+09 M⁻¹
- Ka (TSHR Phe134 to Ala): 5e+09 M⁻¹
- Ka (TSHR Glu157 to Ala): 1.3e+10 M⁻¹
- Ka (TSHR Asp160 to Ala): 1e+10 M⁻¹
- Ka (TSHR Glu178 to Ala): 1.3e+10 M⁻¹
- Ka (TSHR Tyr185 to Ala): 9e+09 M⁻¹
- Ka (TSHR Asp203 to Ala): 1.4e+10 M⁻¹
- Ka (TSHR Lys209 to Ala): 8e+09 M⁻¹
- Ka (TSHR Gln235 to Ala): 1.1e+10 M⁻¹
- Ka (TSHR Lys250 to Ala): 6e+09 M⁻¹
- Ka (TSHR Glu251 to Ala): 8e+09 M⁻¹
- Ka (TSHR Arg255 to Ala): 8e+09 M⁻¹
- Ka (TSHR Arg255 to Asp): 1.3e+10 M⁻¹
- Ka (TSHR Thr257 to Ala): 7e+09 M⁻¹
- Ka (TSHR Trp258 to Ala): 1.2e+10 M⁻¹
- Ka (TSHR Arg274 to Ala): 5e+09 M⁻¹
- Ka (TSHR Asp276 to Ala): 1.3e+10 M⁻¹
- Ka (TSHR Tyr279 to Ala): 6e+09 M⁻¹
- Ka (TSHR Ser281 to Ala): 9e+09 M⁻¹
- Ka [2]: 1.1e+10 M⁻¹
- Ka (TSHR Asp43 to Ala): 1.4e+10 M⁻¹
- Ka (TSHR Glu61 to Ala): 9e+09 M⁻¹
- Ka [3]: 1.8e+10 M⁻¹
- Ka [4]: 6e+09 M⁻¹
- Ka [5]: 8e+09 M⁻¹
- Ka [6]: 6e+09 M⁻¹
- Ka [7]: 9e+09 M⁻¹
- Ka [8]: 9e+09 M⁻¹
- Ka [9]: 3e+09 M⁻¹
- Ka [10]: 8e+09 M⁻¹

From patent US9046519 (RSR, dated 2015)
